T1: FcγRIIb (human, UniProt P31994 43-217)
T1 construct: extracellular domain; also called FcgRIIb; 2b
T1 sequence (looked up): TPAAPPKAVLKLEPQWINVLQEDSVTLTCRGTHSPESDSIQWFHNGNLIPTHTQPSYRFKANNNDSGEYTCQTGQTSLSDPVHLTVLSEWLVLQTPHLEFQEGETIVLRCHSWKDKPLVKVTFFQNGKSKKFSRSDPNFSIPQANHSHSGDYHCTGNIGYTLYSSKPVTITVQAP


Key:
FcγRIa [1] = molecular target: T2, FcγRIa (human, UniProt P12314 16-292); experiment: SPR (Biacore), relative to GpH7-A5/GpH7-B3/GpL16-k0 = 100
T2 construct: extracellular domain; also called FcgRI; FcgRIa

FcγRIIb = molecular target: T1, FcγRIIb; experiment: as above
FcγRIa [2] = molecular target: T2, FcγRIa; experiment: SPR (Biacore); He/Con_1a (FcgRIa) divided by He/Con_2b (FcgRIIb)
Procedure: The heterodimerized antibodies He Abs in which one of the H chains was introduced with an alteration were assayed for their binding activities to each activating FcγR and inhibitory FcγR according to the method described in Example 4. […] The activating FcγRs in FIGS. 26, 27, 28, and 29 are FcγRIa, FcγRIIa (R), FcγRIIa (H), and FcγRIIIa, respectively.
Analysis of interaction between objective antibody and the FcγR was carried out using Biacore T100 (GE Healthcare). HBS-EP+ (GE Healthcare) was used as the running buffer, and the measurement temperature was set to 25° C. Chips produced by immobilizing the antigen peptide by the amine coupling method to a Series S Sencor Chip CM5 (GE Healthcare), or alternatively, chips produced by allowing preliminarily biotinylated antigen peptides to interact with and immobilize onto a Series S Sensor Chip SA (certified) (GE Healthcare) were used. Antibodies of interest were captured onto an antigen peptide-immobilized chip, and allowed to interact to each FcγR diluted with running buffer. To regenerate and repeatedly use the chip, the antibodies captured on the chip were washed off by reacting 10 mM glycine-HCl, pH 1.5.

T2 sequence (P12314 16-292): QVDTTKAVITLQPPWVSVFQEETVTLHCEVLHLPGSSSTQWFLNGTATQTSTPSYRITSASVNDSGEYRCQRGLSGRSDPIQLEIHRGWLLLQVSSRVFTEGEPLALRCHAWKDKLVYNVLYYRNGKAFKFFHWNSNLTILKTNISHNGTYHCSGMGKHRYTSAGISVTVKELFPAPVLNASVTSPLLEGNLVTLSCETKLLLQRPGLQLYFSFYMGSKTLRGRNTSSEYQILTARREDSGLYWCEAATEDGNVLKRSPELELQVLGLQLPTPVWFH

Binder	He/Con_1a (Ia binding) (FcγRIa [1])	He/Con_2b (IIb binding) (FcγRIIb)	Ia/IIb He_1a/2b (FcγRIa [2])
GpH7-A5/GpH7-B3 variant S298_09D/GpL16-k0 (antibody, human IgG1, kappa, heterodimerized IgG1, one H chain mutated; also called He Ab) heavy 1: not shown heavy 2: not shown light: DIVMTQSPLSLPVTPGEPASISCQASESLVHSNRNTYLHWYLQKPGQSPQLLIYKVSNRFSGVPDRFSGSGSGTDFTLKISRVEAEDVGVYYCSQNTHVPPTFGQGTKVEIERTVAAPSVFIFPPSDEQLKSGTASVVCLLNNFYPREAKVQWKVDNALQSGNSQESVTEQDSKDSTYSLSSTLTLSKADYEKHKVYACEVTHQGLSSPVTKSFNRGEC	106 relative (control = 100)	48.3 relative (control = 100)	2.19
GpH7-A5/GpH7-B3 variant S298_10E/GpL16-k0 (antibody, human IgG1, kappa, heterodimerized IgG1, one H chain mutated; also called He Ab) heavy 1: not shown heavy 2: not shown light: DIVMTQSPLSLPVTPGEPASISCQASESLVHSNRNTYLHWYLQKPGQSPQLLIYKVSNRFSGVPDRFSGSGSGTDFTLKISRVEAEDVGVYYCSQNTHVPPTFGQGTKVEIERTVAAPSVFIFPPSDEQLKSGTASVVCLLNNFYPREAKVQWKVDNALQSGNSQESVTEQDSKDSTYSLSSTLTLSKADYEKHKVYACEVTHQGLSSPVTKSFNRGEC	108 relative (control = 100)	47.6 relative (control = 100)	2.28
GpH7-A5/GpH7-B3 variant S298_11K/GpL16-k0 (antibody, human IgG1, kappa, heterodimerized IgG1, one H chain mutated; also called He Ab) heavy 1: not shown heavy 2: not shown light: DIVMTQSPLSLPVTPGEPASISCQASESLVHSNRNTYLHWYLQKPGQSPQLLIYKVSNRFSGVPDRFSGSGSGTDFTLKISRVEAEDVGVYYCSQNTHVPPTFGQGTKVEIERTVAAPSVFIFPPSDEQLKSGTASVVCLLNNFYPREAKVQWKVDNALQSGNSQESVTEQDSKDSTYSLSSTLTLSKADYEKHKVYACEVTHQGLSSPVTKSFNRGEC	109 relative (control = 100)	61.3 relative (control = 100)	1.78

Results, then the binder that gave them:

He/Con_1a (Ia binding) (FcγRIa [1])	He/Con_2b (IIb binding) (FcγRIIb)	Ia/IIb He_1a/2b (FcγRIa [2])	Binder
109 relative (control = 100)	57.8 relative (control = 100)	1.89	GpH7-A5/GpH7-B3 variant S298_12R/GpL16-k0 (antibody, human IgG1, kappa, heterodimerized IgG1, one H chain mutated; also called He Ab) heavy 1: not shown heavy 2: not shown light: DIVMTQSPLSLPVTPGEPASISCQASESLVHSNRNTYLHWYLQKPGQSPQLLIYKVSNRFSGVPDRFSGSGSGTDFTLKISRVEAEDVGVYYCSQNTHVPPTFGQGTKVEIERTVAAPSVFIFPPSDEQLKSGTASVVCLLNNFYPREAKVQWKVDNALQSGNSQESVTEQDSKDSTYSLSSTLTLSKADYEKHKVYACEVTHQGLSSPVTKSFNRGEC
107 relative (control = 100)	61.4 relative (control = 100)	1.75	GpH7-A5/GpH7-B3 variant S298_15Y/GpL16-k0 (antibody, human IgG1, kappa, heterodimerized IgG1, one H chain mutated; also called He Ab) heavy 1: not shown heavy 2: not shown light: DIVMTQSPLSLPVTPGEPASISCQASESLVHSNRNTYLHWYLQKPGQSPQLLIYKVSNRFSGVPDRFSGSGSGTDFTLKISRVEAEDVGVYYCSQNTHVPPTFGQGTKVEIERTVAAPSVFIFPPSDEQLKSGTASVVCLLNNFYPREAKVQWKVDNALQSGNSQESVTEQDSKDSTYSLSSTLTLSKADYEKHKVYACEVTHQGLSSPVTKSFNRGEC
107 relative (control = 100)	77.9 relative (control = 100)	1.37	GpH7-A5/GpH7-B3 variant S298_14T/GpL16-k0 (antibody, human IgG1, kappa, heterodimerized IgG1, one H chain mutated; also called He Ab) heavy 1: not shown heavy 2: not shown light: DIVMTQSPLSLPVTPGEPASISCQASESLVHSNRNTYLHWYLQKPGQSPQLLIYKVSNRFSGVPDRFSGSGSGTDFTLKISRVEAEDVGVYYCSQNTHVPPTFGQGTKVEIERTVAAPSVFIFPPSDEQLKSGTASVVCLLNNFYPREAKVQWKVDNALQSGNSQESVTEQDSKDSTYSLSSTLTLSKADYEKHKVYACEVTHQGLSSPVTKSFNRGEC
108 relative (control = 100)	48.1 relative (control = 100)	2.25	GpH7-A5/GpH7-B3 variant S298_18N/GpL16-k0 (antibody, human IgG1, kappa, heterodimerized IgG1, one H chain mutated; also called He Ab) heavy 1: not shown heavy 2: not shown light: DIVMTQSPLSLPVTPGEPASISCQASESLVHSNRNTYLHWYLQKPGQSPQLLIYKVSNRFSGVPDRFSGSGSGTDFTLKISRVEAEDVGVYYCSQNTHVPPTFGQGTKVEIERTVAAPSVFIFPPSDEQLKSGTASVVCLLNNFYPREAKVQWKVDNALQSGNSQESVTEQDSKDSTYSLSSTLTLSKADYEKHKVYACEVTHQGLSSPVTKSFNRGEC
109 relative (control = 100)	63.5 relative (control = 100)	1.71	GpH7-A5/GpH7-B3 variant S298_16H/GpL16-k0 (antibody, human IgG1, kappa, heterodimerized IgG1, one H chain mutated; also called He Ab) heavy 1: not shown heavy 2: not shown light: DIVMTQSPLSLPVTPGEPASISCQASESLVHSNRNTYLHWYLQKPGQSPQLLIYKVSNRFSGVPDRFSGSGSGTDFTLKISRVEAEDVGVYYCSQNTHVPPTFGQGTKVEIERTVAAPSVFIFPPSDEQLKSGTASVVCLLNNFYPREAKVQWKVDNALQSGNSQESVTEQDSKDSTYSLSSTLTLSKADYEKHKVYACEVTHQGLSSPVTKSFNRGEC

From patent US20180155451A1 (published 2018)
